Data reported in patent US20170037440A1 (MEDIZINISCHE HOCHSCHULE HANNOVER, published 2017).

Target: the molecule itself
Experiment: analytical size exclusion chromatography, self-association

B1: Δ69-CsaBco-His6 (enzyme)
chain: MLIPINFFNFEYIVKKLNNQNAIGVYILPSNLTLKPALCILESHKEDFLNKFLLTISSENLKLQYKFNGQIKNPKSVNEIWTDLFSIAHVDMKLSTDRTLSSSISQFWFRLEFCKEDKDFILFPTANRYSRKLWKHSIKNNQLFKEGIRNYSEISSLPYEEDHNFDIDLVFTWVNSEDKNWQELYKKYKPDFNSDATSTSRFLSRDELKFALRSWEMNGSFIRKIFIVSNCAPPAWLDLNNPKIQWVYHEEIMPQSALPTFSSHAIETSLHHIPGISNYFIYSNDDFLLTKPLNKDNFFYSNGIAKLRLEAWGNVNGECTEGEPDYLNGARNANTLLEKEFKKFTTKLHTHSPQSMRTDILFEMEKKYPEEFNRTLHNKFRSLDDIAVTGYLYHHYALLSGRALQSSDKTELVQQNHDFKKKLNNVVTLTKERNFDKLPLSVCINDGADSHLNEEWNVQVIKFLETLFPLPSSFEKLEHHHHHH
notes: also called ΔN69-CsaB; dN69-CsaB
  binding result: binds
